Data published in the Immune Epitope Database (IEDB).

Columns and labels:
Assay in all cases: IEDB peptide-MHC binding, purified MHC/competitive/radioactivity; filed as Kd, often an IC50 or EC50 that approximates it; ≥ and ≤ were set here for values at or beyond the usual limits of such assays
HLA-A*11:01 = molecular target: HLA-A*11:01
HLA-A*03:01 = molecular target: HLA-A*03:01
HLA-A*31:01 = molecular target: HLA-A*31:01
HLA-A*68:01 = molecular target: HLA-A*68:01
HLA-A*33:01 = molecular target: HLA-A*33:01
[1] = source organism: Vaccinia virus WR
[2] = source organism: Lymphocytic choriomeningitis virus (strain Armstrong)
[3] = source organism: Dengue virus 4 Philippines/H241/1956
[4] = source organism: Dengue virus 2 Jamaica/1409/1983
[5] = source organism: Dengue virus 3 Martinique/1243/1999
[6] = source organism: SARS coronavirus Tor2
[7] = source organism: Dengue virus 1 Brazil/97-11/1997
[8] = source organism: Vaccinia virus Copenhagen

| Sequence | Kd (HLA-A*11:01; [1]) | Kd (HLA-A*03:01; [1]) | Kd (HLA-A*31:01; [1]) | Kd (HLA-A*68:01; [1]) | Kd (HLA-A*33:01; [1]) | also measured |
| --- | --- | --- | --- | --- | --- | --- |
| VINAPIKEFK | 1.31 nM | 4.87 nM | 227 nM | 6.75 nM | 83.8 nM |  |
| LMRFITAETH |  |  |  |  |  | Kd (HLA-A*31:01; [2]): 411 nM; Kd (HLA-A*68:01; [2]): 3540 nM; Kd (HLA-A*33:01; [2]): 5450 nM |
| VSLLGSALLK |  |  |  |  |  | Kd (HLA-A*11:01; [3]): 45.3 nM; Kd (HLA-A*03:01; [3]): 24.9 nM |
| ASITPNNLNK | 1.11 nM | 1.29 nM | 47.6 nM | 6.94 nM | ≥ 29800 nM |  |
| GIFVDTMSIY | 815 nM | 3790 nM | ≥ 70000 nM | 3380 nM | ≥ 28500 nM |  |
| SLENLDPDNK | 6.89 nM | 2920 nM | 17000 nM | 1360 nM | ≥ 22400 nM |  |
| ATIQRFSSLR | 4.64 nM | 23.4 nM | 0.626 nM | 6.84 nM | 244 nM |  |
| ASMGFKVTTR | 0.174 nM | 14 nM | 0.416 nM | 15.4 nM | 532 nM |  |
| MLNILNRRRR |  |  |  |  |  | Kd (HLA-A*31:01; [4]): 14.1 nM |
| HTCMSECVR | 67.3 nM | 3200 nM | 25.4 nM | 57.8 nM | 324 nM |  |
| ALLALNDMGK |  |  |  |  |  | Kd (HLA-A*11:01; [5]): 196 nM; Kd (HLA-A*03:01; [5]): 28.4 nM |
| PVYISQFSY | 1750 nM | 16300 nM | ≥ 25900 nM | ≥ 22400 nM | 16200 nM |  |
| IMLEGETKLY | 5110 nM | 1610 nM | ≥ 55800 nM | 1010 nM | ≥ 41100 nM |  |
| FTTRLLSSTR |  |  |  |  |  | Kd (HLA-A*68:01; [3]): 25.5 nM; Kd (HLA-A*33:01; [3]): 85.4 nM |
| ISRTRLYDY | 1410 nM | 176 nM | 1240 nM | ≥ 42900 nM | 2190 nM |  |
| AQPLPQRQKK |  |  |  |  |  | Kd (HLA-A*11:01; [6]): 1230 nM; Kd (HLA-A*03:01; [6]): ≥ 33400 nM; Kd (HLA-A*31:01; [6]): ≥ 32700 nM; Kd (HLA-A*68:01; [6]): ≥ 70200 nM; Kd (HLA-A*33:01; [6]): ≥ 27500 nM |
| AALDGTFQR | 2.62 nM | 6210 nM | 36.4 nM | 1.95 nM | 177 nM |  |
| FNMLKRARNR |  |  |  |  |  | Kd (HLA-A*33:01; [7]): 421 nM |
| YMPSMKRFR |  |  |  |  |  | Kd (HLA-A*31:01; [4]): 100 nM; Kd (HLA-A*33:01; [4]): 7.57 nM |
| SQNPLAELK |  |  |  |  |  | Kd (HLA-A*11:01; [6]): 306 nM; Kd (HLA-A*03:01; [6]): ≥ 22700 nM; Kd (HLA-A*31:01; [6]): 3700 nM; Kd (HLA-A*68:01; [6]): ≥ 63100 nM; Kd (HLA-A*33:01; [6]): ≥ 48100 nM |
| ASLPTYLSSR |  |  |  |  |  | Kd (HLA-A*31:01; [3]): 7.6 nM |
| SQLAKRFSR |  |  |  |  |  | Kd (HLA-A*31:01; source organism: Dengue virus 3 Singapore/8120/1995): 2.07 nM |

| Sequence | Kd (HLA-A*11:01; [1]) | Kd (HLA-A*03:01; [1]) | Kd (HLA-A*31:01; [1]) | Kd (HLA-A*68:01; [1]) | Kd (HLA-A*33:01; [1]) | also measured |
| --- | --- | --- | --- | --- | --- | --- |
| ISSIIRSLPK |  |  |  |  |  | Kd (HLA-A*11:01; source organism: Mammarenavirus whitewaterense): 23 nM |
| KMVEPWLSSK |  |  |  |  |  | Kd (HLA-A*03:01; [3]): 11.5 nM |
| VTLAILTALR |  |  |  |  |  | Kd (HLA-A*11:01; [6]): 149 nM; Kd (HLA-A*03:01; [6]): 218 nM; Kd (HLA-A*31:01; [6]): 13.4 nM; Kd (HLA-A*68:01; [6]): 14.1 nM; Kd (HLA-A*33:01; [6]): 310 nM |
| MLSIINKRK |  |  |  |  |  | Kd (HLA-A*03:01; [5]): 121 nM |
| SMLNIMNRRK |  |  |  |  |  | Kd (HLA-A*03:01; [7]): 49.6 nM |
| EASIQPITR |  |  |  |  |  | Kd (HLA-A*68:01; source organism: Homo sapiens): 50 nM |
| ISSKQYPAGR | 128 nM | 1020 nM | 5.62 nM | 8.59 nM | 317 nM |  |
| VVVGAGGVGK |  |  |  |  |  | Kd (HLA-A*11:01; source organism: Homo sapiens): 12.4 nM; Kd (HLA-A*03:01; source organism: Homo sapiens): 82 nM |
| PVYISQFSYK |  |  |  |  |  | Kd (HLA-A*11:01; [8]): 19.2 nM; Kd (HLA-A*03:01; [8]): 1.26 nM; Kd (HLA-A*31:01; [8]): 13.3 nM; Kd (HLA-A*68:01; [8]): 95.2 nM; Kd (HLA-A*33:01; [8]): 54 nM |
| TVVIGTSKFY |  |  |  |  |  | Kd (HLA-A*11:01; [6]): 809 nM; Kd (HLA-A*03:01; [6]): 1100 nM; Kd (HLA-A*31:01; [6]): 1860 nM; Kd (HLA-A*68:01; [6]): 1500 nM; Kd (HLA-A*33:01; [6]): 1240 nM |
| DYMTSMKRFK |  |  |  |  |  | Kd (HLA-A*33:01; [7]): 21.2 nM |
| TLISLNSMY | 282 nM | 155 nM | 8060 nM | 46.8 nM | 15000 nM |  |
| KSIHLTKTDK | 19.8 nM | 107 nM | 313 nM | 416 nM | ≥ 70000 nM |  |
| LFKNLATSIY | ≥ 69800 nM | ≥ 41700 nM | ≥ 37100 nM | 19900 nM | ≥ 70000 nM |  |
| LSDENYLLK | 1.59 nM | 591 nM | 1500 nM | 13500 nM | ≥ 66100 nM |  |
| EIMDKEQLLK | 87.8 nM | 1320 nM | ≥ 50900 nM | 5.42 nM | 9850 nM |  |
| TSVDIETAIR | 581 nM | 2980 nM | 922 nM | 1.35 nM | 1440 nM |  |
| NARGEDTQMR | ≥ 69000 nM | ≥ 41400 nM | 1770 nM | 16.2 nM | 2120 nM |  |
| VSMTYLYNK | 1.36 nM | 72.5 nM | 2.76 nM | 82.7 nM | 806 nM |  |
| RNPYENILYK |  |  |  |  |  | Kd (HLA-A*11:01; [2]): 3480 nM; Kd (HLA-A*03:01; [2]): 7040 nM; Kd (HLA-A*31:01; [2]): 16400 nM; Kd (HLA-A*68:01; [2]): 5510 nM; Kd (HLA-A*33:01; [2]): ≥ 37800 nM |
| ILMKTANNY | 287 nM | 325 nM | ≥ 77900 nM | ≥ 20900 nM | ≥ 77700 nM |  |
